Here are results for 3 molecules from patent US20240325557A1, “TREATMENT OF CANCER” (INNATE PHARMA, priority 2020, published 2024).

The test system of assay [1] is Nectin-4 Mutant 5 (A158P/E160G/S243A/F244S). Description: Binding to cell surface expressed Nectin-4 point mutant. Details: species or system human. The settings on record: HEK-293T; results irrelevant, due to an absence of expression of said protein. The source says:
(§1) Combined with the published structures of the Nectin-4 domains, Nectin-4 mutations at surface exposed amino acids residues were designed. Nectin-4 domain structure was modelled based on Protein Data Bank reference: 4FRW (domains V et C1). Human Nectin-4 used was NCBI Reference Sequence: NP_112178.2, mouse Nectin-4 used was NCBI Reference Sequence: AAL79833.1, cynomolgus Nectin-4 used was NCBI Reference Sequence: XP_005541277.1, rat Nectin-4 used was NCBI Reference Sequence: NP_001102546.1. The cells expressing the Nectin-4 mutants are then be used for testing anti-Nectin-4 antibodies for loss of binding to different Nectin-4 mutants to identify antibodies that bind to the same site on Nectin-4. […] FIGS. 12A and 12B show a molecular model of the human Nectin-4 protein, indicating the position of substituted residues in mutants 7 (12A) and in mutants 7bis (12B); these mutants are in the C1 domain identify two sites at the junction of domain C1 and V domain that are on opposing faces of the Nectin-4 protein.
(§2) Nectin-4 mutants were generated by PCR. The sequences amplified were run on agarose gel and purified using the Macherey Nagel PCR Clean-Up Gel Extraction kit. The purified PCR products generated for each mutant were then ligated into an expression vector, with the ClonTech InFusion system. The vectors containing the mutated sequences were prepared as Miniprep and sequenced. After sequencing, the vectors containing the mutated sequences were prepared as Midiprep using the Promega PureYield™ Plasmid Midiprep System. HEK293T cells were grown in DMEM medium (Invitrogen), transfected with vectors using Invitrogen's Lipofectamine 2000 and incubated at 37° C. in a CO2 incubator for 48 hours prior to testing for transgene expression. The targeted amino acid mutations are shown in Table 2 below, listing the residue present in wild-type Nectin-4/position of residue/residue present in mutant Nectin-4, with position reference being to the Nectin-4 protein with leader peptide shown in SEQ ID NO: 1.

In assay [2] the target is T1, Nectin-4 Mutant 8 (T190A/T191Q/S193A) (Homo sapiens, UniProt Q96NY8, S193A/T190A/T191Q).
T1 construct: expressed in transfected cells; host or cells: HEK293T
T1 sequence (Q96NY8 32-510 T190A/T191Q/S193A): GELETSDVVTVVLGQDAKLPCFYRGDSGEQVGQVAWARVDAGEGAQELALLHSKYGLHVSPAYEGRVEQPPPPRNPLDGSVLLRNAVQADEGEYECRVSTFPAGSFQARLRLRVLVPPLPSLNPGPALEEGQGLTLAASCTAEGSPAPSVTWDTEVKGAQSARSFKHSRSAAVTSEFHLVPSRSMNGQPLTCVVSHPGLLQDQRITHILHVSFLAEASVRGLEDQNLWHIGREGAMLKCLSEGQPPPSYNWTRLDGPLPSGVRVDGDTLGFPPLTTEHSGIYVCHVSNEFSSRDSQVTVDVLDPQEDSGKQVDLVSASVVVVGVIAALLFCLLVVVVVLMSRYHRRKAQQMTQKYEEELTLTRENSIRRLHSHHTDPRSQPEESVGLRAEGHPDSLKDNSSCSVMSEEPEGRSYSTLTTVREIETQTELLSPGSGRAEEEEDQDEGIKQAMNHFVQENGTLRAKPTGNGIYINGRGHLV
The description is as above. The settings on record: HEK-293T.
From the text: as §1, §2

In assay [3] the target is T2, wild-type human Nectin-4 protein (huNectin4-his-BirA) (Homo sapiens, UniProt Q96NY8).
T2 sequence (Q96NY8 with tags, fused parts or gaps): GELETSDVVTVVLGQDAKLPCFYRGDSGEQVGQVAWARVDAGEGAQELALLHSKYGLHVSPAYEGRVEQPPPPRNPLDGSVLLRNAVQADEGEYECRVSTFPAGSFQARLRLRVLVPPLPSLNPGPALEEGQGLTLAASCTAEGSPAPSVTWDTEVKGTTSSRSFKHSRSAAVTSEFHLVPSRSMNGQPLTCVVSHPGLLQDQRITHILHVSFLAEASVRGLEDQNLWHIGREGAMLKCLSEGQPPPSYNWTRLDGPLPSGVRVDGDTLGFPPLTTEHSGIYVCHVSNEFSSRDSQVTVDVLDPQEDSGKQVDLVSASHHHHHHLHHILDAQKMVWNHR
Description: Affinity determination by SPR (Biacore T200). The format is binding. The settings on record: 25° C. The procedure:
Antibodies were tested for binding affinity to the wild-type human Nectin-4 protein by SPR (Surface Plasmon Resonance) methods. Measurements were performed on a Biacore T200 apparatus (Biacore GE Healthcare) at 25° C. Sensorgrams were analyzed with Biacore T100 Evaluation software. A CMR Sensor Chip with immobilized Protein A at about 600 RU was used. Anti-Nectin-4 antibodies were captured onto the Protein-A chip (antibodies diluted to 1 μg/ml in HBS-EP+1× buffer and injected over 120s at 40 μL/min). Recombinant human monomeric huNectin4-his-BirA protein was injected at different concentrations in a range from 100 nM to 1.56 nM over captured antibodies (HuNectin4-His-BirA diluted in HBS-EP+1× in ½ dilutions, injected over 120s at 40 μl/min) and allowed to dissociate for 600s. The chip was regenerated with NaOh 10 mM 2× for 30s at 40 μl/min. The sensorgram sets were fitted using the 1:1 kinetic binding model or two state reaction model, as a function of the profile of the curves.

B1: 5E7 (antibody, V domains shown)
VH: QVQLQQPGAELVKPGASVKLSCKASGYIFTSYWMHWVKQRPGQGLEWIGEIDPSDSYTNYNQKFKGKATLTLDKSSSTTYMQLSSLTSEDSAVYYCVRGYGNYGDYWGQGTTLTVSS
VL: DVVMTQAAFSNPVTLGTSASISCRSSKSLLHSNGITYLYWYLQKPGQSPQLLIYQMSNLASGVPDRFSSSGSGTDFTLRISRVEAEDVGVYYCAQNLELPWTFGGGTKLEIK
Take B1: in assay [1], the “association with Nectin-4 Mutant 5” value is listed as “−”. Further, the “association with Nectin-4 Mutant 8” value in assay [2] is “+”. In addition, in assay [3], the ka was 620000 M⁻¹ s⁻¹ and the kd turned out to be 0.003 s⁻¹.

B2: 10B12: anti-Nectin-4 antibody, VH SEQ ID NO: 24, VL SEQ ID NO: 25, binds junction of domain C1 and V (antibody, listed as Mus musculus, V domains shown)
VH: QVQLQQPGAELVKPGASVKLSCKASGYTFTSYWMHWVKQRPGQGLEWIGEIDPSDSYTNYNQKFKGKATLTVDKSSSTAYMQLSSLTSEDSAVYYCVRGYGNYGDYWGQGTTLTVSS
VL: DIVMTQAAFSNPVTLGTSASISCRSSKSLLHSNGITYLYWYLQKPGQSPQLLIYQMSNLASGVPDRFSSSGSGTDFTLRISRVEAEDVGVYYCAQNLELPWTFGGGTKLEIK
For B2, the “association with Nectin-4 Mutant 5” value in assay [1] is “−”. Further, the “association with Nectin-4 Mutant 8” value in assay [2] is “+”. In assay [3], this molecule registered a ka of 860000 M⁻¹ s⁻¹ and a kd of 0.01 s⁻¹.

B3: N41 (antibody, V domains shown)
VH: QVQLKQSGPGLVQPSQSLSITCTVSGFSLTNYGVHWVRQSPGKGLEWLGVIWSGGSTDYNAAFISRLSISKDTSKSQVFFKMNSLQADDTAIYYCARELIHAMDNWGQGTSVTVSS
VL: DIQMTQSPASLSVSVGETVTITCRASENIYSNLAWYQQKQGNSPQLLVFAATNLADGVPSRFSGSGSGTQYSLKINSLQSEDFGTYYCQHFWGTPTFGGGTKLEIK
On to B3, for which the “association with Nectin-4 Mutant 5” value in assay [1] is listed as “−”. The “association with Nectin-4 Mutant 8” value in assay [2] is recorded as “+”. Also, in assay [3], the ka came to 580000 M⁻¹ s⁻¹ and the kd was determined as 0.00087 s⁻¹.
